Experimental data: publication PMC10157535, “Structural basis of phosphorylation-induced activation of the response regulator VbrR”

Legend:
[1] = biological target: VbrR receiver domain (RD, 1-117) (Vibrio parahaemolyticus); experiment: SEC-MALS; SEC-MALLS, Superdex-200 10/30, buffer A supplemented with 5.3 mM BeSO4, 35 mM NaF and 7 mM MgCl2 (BeF3-), 100 uL of ~10 mg/mL protein injected
[2] = biological target: full-length VbrR (response regulator VbrR from Vibrio parahaemolyticus) (Vibrio parahaemolyticus); experiment: SEC-MALS; SEC-MALLS, Superdex-200 10/30, buffer A (20 mM Tris-HCl pH 8.0, 100 mM NaCl), 100 uL of ~10 mg/mL protein injected, 0.5 mL/min; no BeF3-
[3] = biological target: VbrR DNA-binding domain (DBD, 125-220) (Vibrio parahaemolyticus); experiment: as above
VbrR (monomer fraction) [4] = biological target: T1, VbrR (monomer fraction) (Vibrio parahaemolyticus, UniProt A0A0L8SKF9 1-220); experiment: crystal structure; 4.6 A; VbrR dimer on DNA; BLI (Octet RED, biotinylated protein on streptavidin sensors), PBS: 10 mM phosphate pH 7.4, 2.7 mM KCl, 137 mM NaCl, 25 C; 1:1 fit; conditions: protein: recombinant; tags: N-terminal 6xHis; biotinylated for BLI; chain copies: 2; blunt
T1 sequence: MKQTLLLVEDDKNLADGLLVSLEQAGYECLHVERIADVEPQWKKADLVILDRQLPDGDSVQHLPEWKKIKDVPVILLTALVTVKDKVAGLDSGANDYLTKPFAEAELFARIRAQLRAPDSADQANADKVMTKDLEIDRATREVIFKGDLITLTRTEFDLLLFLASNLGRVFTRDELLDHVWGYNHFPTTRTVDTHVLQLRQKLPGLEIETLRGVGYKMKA

VbrR (monomer fraction) [5] = biological target: T1, VbrR (monomer fraction); experiment: BLI; VbrR monomer; BLI (Octet RED, biotinylated protein on streptavidin sensors), PBS: 10 mM phosphate pH 7.4, 2.7 mM KCl, 137 mM NaCl, 25 C; 1:1 fit; conditions: protein: recombinant; tags: N-terminal 6xHis; biotinylated for BLI
[6] = biological target: T2, VbrR DBD (monomer fraction) (Vibrio parahaemolyticus, UniProt A0A0L8SKF9 125-220); experiment: BLI; DBD monomer; BLI (Octet RED, biotinylated protein on streptavidin sensors), PBS: 10 mM phosphate pH 7.4, 2.7 mM KCl, 137 mM NaCl, 25 C; 1:1 fit; conditions: protein: recombinant, tags: N-terminal 6xHis
T2 sequence: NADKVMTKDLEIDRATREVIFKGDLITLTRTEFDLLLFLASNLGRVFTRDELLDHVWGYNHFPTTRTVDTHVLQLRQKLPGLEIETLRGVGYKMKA

VbrR (state not stated) [7] = biological target: T3, VbrR (state not stated) (Vibrio parahaemolyticus, UniProt A0A0L8SKF9 1-220); experiment: BLI; 2.5-80 uM DNA; oligomeric state not stated; BLI (Octet RED, biotinylated protein on streptavidin sensors), PBS: 10 mM phosphate pH 7.4, 2.7 mM KCl, 137 mM NaCl, 25 C; 1:1 fit; conditions: protein: recombinant, tags: N-terminal 6xHis, chain copies: 2
T3 sequence: T1 sequence

VbrR (state not stated) [8] = biological target: T3, VbrR (state not stated); experiment: BLI; 10-160 uM DNA; text order of the two values (0.69, 0.77) matches 30 bp then 49 bp; BLI (Octet RED, biotinylated protein on streptavidin sensors), PBS: 10 mM phosphate pH 7.4, 2.7 mM KCl, 137 mM NaCl, 25 C; 1:1 fit; conditions: protein: recombinant, tags: N-terminal 6xHis, chain copies: 2

VbrR receiver domain (RD, 1-117) (domain or fragment)
stoichiometry N [1]: 2

full-length VbrR (response regulator VbrR from Vibrio parahaemolyticus) (natural protein)
stoichiometry N [2]: 2

VbrR DNA-binding domain (DBD, 125-220) (domain or fragment)
stoichiometry N [3]: 2

B1: exsC promoter 26 bp (dsDNA)
DNA 1: CACAATTCTAATTCTTCATCGCTTGT
DNA 2: ACAAGCGATGAAGAATTAGAATTGTG
binding result (VbrR (monomer fraction) [4]): binds

B2: exsC promoter 49 bp (dsDNA)
DNA 1: AACACAATTCTAATTCTTCATCGCTTGTCGATATAAACCAAAATCCCAC
DNA 2: GTGGGATTTTGGTTTATATCGACAAGCGATGAAGAATTAGAATTGTGTT
Kd (VbrR (monomer fraction) [5]): 270 nM | Kd [6]: 140 nM | Kd (VbrR (state not stated) [7]): 770 nM

B3: exsC promoter 30 bp (dsDNA)
DNA 1: AACACAATTCTAATTCTTCATCGCTTGTCG
DNA 2: CGACAAGCGATGAAGAATTAGAATTGTGTT
Kd (VbrR (state not stated) [8]): 690 nM
